Experimental data taken from the RNAGym collection of RNA variant scans (doi:10.7554/elife.80360).

B1: Hairpin Ribozyme (parent)
chain: GUCCUCUUUCACGUGCGCGUGAAAGAGAGAAGUGAACCAGAGAAACACACGUUGUGGUAUAUUACCUGGUA

Variants of: B1
Assay: self-cleavage, relative activity (ratio to wild type); higher = more cleavage; co-transcriptional
For G29A G56A, the self-cleavage was 0.157.
G29C G34C gave a self-cleavage of 0.116.
G29C U55G gave a self-cleavage of 0.0655.
With A30C G34U the self-cleavage was 0.815.
G29A U62G gave a self-cleavage of 0.21.
With A30C U33C the self-cleavage was 0.1.
A30C U33G showed a self-cleavage of 0.0878.
For G29C A36G, the self-cleavage was 0.18.
G29A U58C gave a self-cleavage of 0.202.
In the case of G29A U58G, the self-cleavage is reported as 0.13.
In the case of G29C G68U, the self-cleavage is reported as 0.125.
For A30C U62C, the self-cleavage was 0.0331.
In the case of G29C A44C, the self-cleavage is reported as 0.126.
A30C U55A showed a self-cleavage of 0.146.
With A30C U55C the self-cleavage was 0.161.
A30C G57U gave a self-cleavage of 0.266.
G29A A61G showed a self-cleavage of 0.125.
In the case of G29C A49U, the self-cleavage is reported as 0.109.
For G29C A49G, the self-cleavage was 0.178.
G29C C50G gave a self-cleavage of 0.0763.
Variant G29C C50U has a self-cleavage of 0.144.
In the case of G29A C50G, the self-cleavage is reported as 0.187.
For A30C A43U, the self-cleavage was 0.128.
G29A G69U showed a self-cleavage of 0.113.
Work on G29A G69C yielded a self-cleavage of 0.14.
A30C G69C gave a self-cleavage of 0.318.
Work on A30C G69A yielded a self-cleavage of 0.0574.
Variant A30C A44C has a self-cleavage of 0.0571.
G29U U55C showed a self-cleavage of 0.0858.
Variant G29U U55G has a self-cleavage of 0.062.
G29U U55A gave a self-cleavage of 0.0925.
A30C U60G showed a self-cleavage of 0.181.
With G29C A61G the self-cleavage was 0.135.
For G29C A61U, the self-cleavage was 0.0566.
Variant G29A U33A has a self-cleavage of 0.203.
G29A G57C gave a self-cleavage of 0.109.
In the case of G29U A36G, the self-cleavage is reported as 0.275.
G29U A36C showed a self-cleavage of 0.101.
For G29C U60A, the self-cleavage was 0.139.
G29C U60C gave a self-cleavage of 0.164.
Work on G29C A30G yielded a self-cleavage of 0.218.
Work on G29C A30U yielded a self-cleavage of 0.0915.
In the case of G29C A39U, the self-cleavage is reported as 0.0768.
Work on G29U U52G yielded a self-cleavage of 0.0467.
With G29A C38G the self-cleavage was 0.101.
Variant A30G A41G has a self-cleavage of 0.112.
With G29C U33A the self-cleavage was 0.0541.
Work on A30G A59U yielded a self-cleavage of 0.305.
Work on G29A A71G yielded a self-cleavage of 0.112.
Work on G29A A71C yielded a self-cleavage of 0.295.
Work on G29C A47C yielded a self-cleavage of 0.15.
For G29C A47G, the self-cleavage was 0.0858.
Variant G29C A43G has a self-cleavage of 0.261.
G29U G68U gave a self-cleavage of 0.176.
With G29A G68U the self-cleavage was 0.306.
Work on G29A G68C yielded a self-cleavage of 0.143.
In the case of G29A G68A, the self-cleavage is reported as 0.125.
For G29C U62A, the self-cleavage was 0.13.
G29C U62G gave a self-cleavage of 0.18.
G29U U70C gave a self-cleavage of 0.127.
For G29A G40U, the self-cleavage was 0.0938.
A30C A47U showed a self-cleavage of 0.105.
With G29A G34C the self-cleavage was 0.248.
For A30C U58G, the self-cleavage was 0.103.
A30C U58A showed a self-cleavage of 0.134.
For G29U A61C, the self-cleavage was 0.14.
With G29C G54A the self-cleavage was 0.1.
G29C G54C showed a self-cleavage of 0.0908.
Variant G29U A59U has a self-cleavage of 0.104.
With G29U A59G the self-cleavage was 0.0822.
For G29C U53G, the self-cleavage was 0.0421.
For G29C U53A, the self-cleavage was 0.116.
G29U A41C showed a self-cleavage of 0.217.
Work on G29U G32A yielded a self-cleavage of 0.169.
For G29U G32U, the self-cleavage was 0.164.
Variant G29A C66G has a self-cleavage of 0.0855.
A30G A43C gave a self-cleavage of 0.1.
A30C U70G gave a self-cleavage of 0.0924.
In the case of G29C U52G, the self-cleavage is reported as 0.0183.
Variant G29C U52A has a self-cleavage of 0.129.
A30C A31U gave a self-cleavage of 0.129.
Work on G29C A59G yielded a self-cleavage of 0.0639.
G29C A59C showed a self-cleavage of 0.205.
Variant A30C A45G has a self-cleavage of 0.194.
Work on A30C A45U yielded a self-cleavage of 0.0541.
G29A G42A gave a self-cleavage of 0.139.
With G29C U63G the self-cleavage was 0.0807.
Variant A30G A31G has a self-cleavage of 0.157.
For G29U A64G, the self-cleavage was 0.0899.
For A30G A36U, the self-cleavage was 0.152.
Work on G29U U63G yielded a self-cleavage of 0.103.
In the case of G29U U60G, the self-cleavage is reported as 0.17.
In the case of A30C A49G, the self-cleavage is reported as 0.123.
In the case of A30C A49U, the self-cleavage is reported as 0.154.
Variant A30C A49C has a self-cleavage of 0.0983.
Variant G29C U67A has a self-cleavage of 0.179.
Variant A30C A61C has a self-cleavage of 0.251.
Work on G29U A43G yielded a self-cleavage of 0.134.
Variant A30C C66U has a self-cleavage of 0.169.
Work on G29C U58C yielded a self-cleavage of 0.159.
For A30C U52C, the self-cleavage was 0.133.
A30C U52A gave a self-cleavage of 0.214.
For A30C C50U, the self-cleavage was 0.118.
With G29C G69C the self-cleavage was 0.0776.
G29C C48G showed a self-cleavage of 0.0534.
Work on G29A U53A yielded a self-cleavage of 0.109.
In the case of G29C G56C, the self-cleavage is reported as 0.0545.
G29C G56A gave a self-cleavage of 0.0331.
In the case of A30G A61C, the self-cleavage is reported as 0.109.
Work on G29U A49C yielded a self-cleavage of 0.14.
Work on G29U A49G yielded a self-cleavage of 0.173.
For A30C U53G, the self-cleavage was 0.284.
With A30C U53C the self-cleavage was 0.203.
Variant A30C G56U has a self-cleavage of 0.157.
Work on G29U A44G yielded a self-cleavage of 0.142.
Variant G29U A39G has a self-cleavage of 0.0986.
For G29U A39U, the self-cleavage was 0.0632.
With G29U G54A the self-cleavage was 0.104.
G29U U62C showed a self-cleavage of 0.0779.
G29U U62A gave a self-cleavage of 0.103.
G29U C50G gave a self-cleavage of 0.184.
For G29U C50A, the self-cleavage was 0.113.
Variant A30C G32A has a self-cleavage of 0.145.
Work on A30C U63C yielded a self-cleavage of 0.0293.
G29C A45U showed a self-cleavage of 0.122.
In the case of G29C A45G, the self-cleavage is reported as 0.106.
For G29U G69A, the self-cleavage was 0.105.
With G29U G69C the self-cleavage was 0.0911.
Work on G29U U33G yielded a self-cleavage of 0.0639.
Work on G29C A31U yielded a self-cleavage of 0.0962.
For A30C A36U, the self-cleavage was 0.122.
G29U G56C showed a self-cleavage of 0.162.
In the case of G29U C46U, the self-cleavage is reported as 0.124.
For G29U C46A, the self-cleavage was 0.089.
A30C A41G showed a self-cleavage of 0.
Variant G29C A64G has a self-cleavage of 0.124.
G29C A64C showed a self-cleavage of 0.133.
In the case of A30C C37A, the self-cleavage is reported as 0.0529.
Variant G29C U70G has a self-cleavage of 0.119.
G29C U70A showed a self-cleavage of 0.162.
G29C A35G showed a self-cleavage of 0.178.
For G29U A45G, the self-cleavage was 0.136.
For G29U G34C, the self-cleavage was 0.0691.
In the case of G29U C65U, the self-cleavage is reported as 0.105.
Work on G29A U52A yielded a self-cleavage of 0.115.
In the case of G29A U52G, the self-cleavage is reported as 0.0639.
Variant G29U U53C has a self-cleavage of 0.197.
Variant G29C C65G has a self-cleavage of 0.209.
G29C C65A gave a self-cleavage of 0.204.
For G29C G40U, the self-cleavage was 0.171.
Work on G29A C65U yielded a self-cleavage of 0.145.
With G29U A31U the self-cleavage was 0.151.
For G29U A31G, the self-cleavage was 0.167.
Variant G29U A31C has a self-cleavage of 0.2.
G29C C37U gave a self-cleavage of 0.121.
For A30C C46A, the self-cleavage was 0.0713.
A30C C46G showed a self-cleavage of 0.0771.
Work on A30G A45G yielded a self-cleavage of 0.17.
With G29U C37G the self-cleavage was 0.0458.
With G29U U58G the self-cleavage was 0.168.
Work on G29A U55A yielded a self-cleavage of 0.13.
G29A U55G gave a self-cleavage of 0.143.
For G29A U63C, the self-cleavage was 0.0755.
For A30C C48U, the self-cleavage was 0.17.
Variant G29A G32A has a self-cleavage of 0.181.
In the case of A30C G54C, the self-cleavage is reported as 0.173.
In the case of A30C G54A, the self-cleavage is reported as 0.107.
